Measurements published in publication PMC11592157, “Exploring the Biological Activity of a Humanized Anti-CD99 ScFv and Antibody for Targeting T Cell Malignancies” (Biomolecules, 2024).
Where no end group is shown, it is not given here. The star is where a group is joined. Biotin = O=C1N[C@H]2[C@H](CS[C@H]2CCCCC(=O)*)N1; Ahx = NCCCCCC(=O)O

T1: CD99 peptide number 6 (Biotin-Ahx-AVVDGENDDPRPPNP) (human)
T1 peptide: {Biotin-Ahx}-AVVDGENDDPRPPNP

T2: CD99 peptide number 6 (Biotin-Ahx-AVVDGENDDPRPPNP) (Homo sapiens)
T2 construct: stretch of human CD99
T2 chain: {Biotin-Ahx}-AVVDGENDDPRPPNP

B1: mouse anti-CD99 monoclonal antibody MT99/3 (antibody, V domains shown)
VH: VQLQQSGAELVKPGASVRLSCTLSGFNIKDTYIHWVNQRPEQGLEWIGRIDPGNGNIKYDPKFQGKATITADTSSNKVYLHLSSLTSEDTAVYYCARSGGYDFDYWGQGTTLTVSS
VL: DVVMTQTPLSLPVSLGYQVSISCRSSQSLVHSNGNTYLHWYLQKPGQSPKLLIYTVSNRFSGVPDRFSGSGSGTDFTLKISRVEAEDLGVYFCSQSTYVPYTFGGGTKLEKK
notes: mouse IgG heavy constant region; Parent antibody of m1 and m2; also called mAb MT99/3; mouse MT99/3
B2: HuScFvMT99/3 (HIS6X) (scFv, V domains shown)
VH: QVQLQESGPGLVKPSETLSLTCTLSGFNIKDTYIHWVRQPPGKGLEWIGRIDPGNGNIKYDPKFQGRATISADTSKNQVSLNLDSVSAADTAIYYCARSGGYDFDYWGKGSTVTVSS
VL: VQMTQSPSSLSASVGDRVTITCRSSQSLVHSNGNTYLHWYQQKPGKAPKLLIYTVSNRFSGVPSRFSGSGSGTDFTFTISSLQPEDIATYFCSQSTYVPYTFGPGTKVDIK
notes: V-KAPPA domain of HuScFvMT99/3; linker of the ScFvkh format (V-KAPPA-linker-VH); VH domain of HuScFvMT99/3; order V-KAPPA-linker-VH; cloned NdeI/XhoI into pET-21a; also called humanized single-chain Fv MT99/3; humanized ScFv variant of mAb MT99/3; source: E. coli Origami B (DE3), purified (Ni-NTA agarose); not shown: His6, C-terminal, kept

Columns and labels:
[1] = molecular target: T1, CD99 peptide number 6 …; experiment: BLI
[2] = molecular target: T2, CD99 peptide number 6 …; experiment: BLI; Biotin-Ahx-AVVDGENDDPRPPNP (10 ug/mL) loaded on streptavidin biosensors; antibody 0.625 to 10 ug/mL in PBS with 0.05% Tween 20; Octet K2; conditions: both partners purified
CD99ExhIgG = molecular target: T3, CD99ExhIgG (Homo sapiens, UniProt P14209); experiment: ELISA; indirect ELISA; CD99ExhIgG (or CD147Rg as negative control) coated on the plate at 4 °C overnight; purified HuScFvMT99/3 (HIS6X) at 1, 5 and 10 ug/mL, room temperature 1 h; detected with HRP anti-His tag antibody; conditions: both partners purified
T3 construct: extracellular part of human CD99; also called CD99ExIgG; recombinant CD99ExhIgG; source: HEK293T stably expressing, culture supernatant, purified (HiTrap Protein G)
T3 sequence (P14209 23-122): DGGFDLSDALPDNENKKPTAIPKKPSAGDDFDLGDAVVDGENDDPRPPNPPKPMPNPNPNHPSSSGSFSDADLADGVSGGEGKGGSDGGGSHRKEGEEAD

Binder | koff [1] [s⁻¹] | Kd [2] [nM] | binding result (CD99ExhIgG)
B1 | 8.06e-05 | 0.316 | –
B2 | – | – | binds
